Measurements taken from paper PMC3032881.

Legend:
[1] = target: soluble recombinant HLA A*0201 (α chain tagged with a biotinylation sequence, with β2m); experiment: SPR; real time pMHC stability assay, BIAcore 3000, CM5 chip; ~500 RU of biotinylated refolded pMHCI immobilised on streptavidin; flow 10 μl/min for 15,000 s; Langmuir dissociation analysis converted to half-life
[2] = target: HLA A*0201 on the surface of TAP deficient T2 cells (human (endogenous in T2 cells)); experiment: flow cytometry on cells; T2-binding assay: TAP deficient T2 cells with peptide at 100, 50, 10 and 1 μM in AIM-V, 10 min 37 °C, room temperature overnight, 2 h 37 °C; surface HLA A*0201 stained with anti-human HLA A*0201:RPE; MFI fitted (log(agonist) vs. response) to logEC50

half-life [1] [h] | koff [1] [s⁻¹] | LogEC50 [2] [M] | Substance
8.9 | 2.2e-05 | -3.53 | NY-ESO-1 157-165 peptide …
16.9 | 1.1e-05 | -4.3 | PSA 178-187 peptide …
